The data set deals with the molecule itself. Kind of data set: non-reducing SDS-PAGE with Western blot; lysates of stably transfected HEK293 cells denatured in sample buffer with or without a reducing agent; blotted with anti-HA.

B1: HA-tagged WT Endoglin (receptor, UniProt P17813 26-658, looked up)
chain: ETVHCDLQPVGPERGEVTYTTSQVSKGCVAQAPNAILEVHVLFLEFPTGPSQLELTLQASKQNGTWPREVLLVLSVNSSVFLHLQALGIPLHLAYNSSLVTFQEPPGVNTTELPSFPKTQILEWAAERGPITSAAELNDPQSILLRLGQAQGSLSFCMLEASQDMGRTLEWRPRTPALVRGCHLEGVAGHKEAHILRVLPGHSAGPRTVTVKVELSCAPGDLDAVLILQGPPYVSWLIDANHNMQIWTTGEYSFKIFPEKNIRGFKLPDTPQGLLGEARMLNASIVASFVELPLASIVSLHASSCGGRLQTSPAPIQTTPPKDTCSPELLMSLIQTKCADDAMTLVLKKELVAHLKCTITGLTFWDPSCEAEDRGDKFVLRSAYSSCGMQVSASMISNEAVVNILSSSSPQRKKVHCLNMDSLSFQLGLYLSPHFLQASNTIEPGQQSFVQVRVSPSVSEFLLQLDSCHLDLGPEGGTVELIQGRAAKGNCVSLLSPSPEGDPRFSFLLHFYTVPIPKTGTLSCTVALRPKTGSQDQEVHRTVFMRLNIISPDLSGCTSKGLVLPAVLGITFGAFLIGALLTAALWYIYSHTRSPSKREPVVAVAAPASSESSSTNHSIGSTQSTPCSTSSMA
notes: Endoglin (CD105), wild type, encoded by ENG; Seen as a dimer on a non-reducing gel; also called Endoglin WT; ENG-WT; source: HEK293, stably transfected (pcDNA3.0), in lysate
For the protein B1, the “stoichiometry N” value came out at 2.

B2: HA-tagged Endoglin mutant variant P165L (receptor, UniProt P17813 26-658, looked up)
chain: ETVHCDLQPVGPERGEVTYTTSQVSKGCVAQAPNAILEVHVLFLEFPTGPSQLELTLQASKQNGTWPREVLLVLSVNSSVFLHLQALGIPLHLAYNSSLVTFQEPPGVNTTELPSFPKTQILEWAAERGPITSAAELNDLQSILLRLGQAQGSLSFCMLEASQDMGRTLEWRPRTPALVRGCHLEGVAGHKEAHILRVLPGHSAGPRTVTVKVELSCAPGDLDAVLILQGPPYVSWLIDANHNMQIWTTGEYSFKIFPEKNIRGFKLPDTPQGLLGEARMLNASIVASFVELPLASIVSLHASSCGGRLQTSPAPIQTTPPKDTCSPELLMSLIQTKCADDAMTLVLKKELVAHLKCTITGLTFWDPSCEAEDRGDKFVLRSAYSSCGMQVSASMISNEAVVNILSSSSPQRKKVHCLNMDSLSFQLGLYLSPHFLQASNTIEPGQQSFVQVRVSPSVSEFLLQLDSCHLDLGPEGGTVELIQGRAAKGNCVSLLSPSPEGDPRFSFLLHFYTVPIPKTGTLSCTVALRPKTGSQDQEVHRTVFMRLNIISPDLSGCTSKGLVLPAVLGITFGAFLIGALLTAALWYIYSHTRSPSKREPVVAVAAPASSESSSTNHSIGSTQSTPCSTSSMA
notes: Endoglin (CD105) with the HHT1 disease-causing missense variant P165L, made by site directed mutagenesis; Retained in the ER; also called ENG-P165L; p; P165L; source: HEK293, stably transfected (pcDNA3.0), in lysate
For B2, the “stoichiometry N” value came out at 2.

B3: HA-tagged Endoglin mutant variant V105D (receptor, UniProt P17813 26-658, looked up)
chain: ETVHCDLQPVGPERGEVTYTTSQVSKGCVAQAPNAILEVHVLFLEFPTGPSQLELTLQASKQNGTWPREVLLVLSVNSSDFLHLQALGIPLHLAYNSSLVTFQEPPGVNTTELPSFPKTQILEWAAERGPITSAAELNDPQSILLRLGQAQGSLSFCMLEASQDMGRTLEWRPRTPALVRGCHLEGVAGHKEAHILRVLPGHSAGPRTVTVKVELSCAPGDLDAVLILQGPPYVSWLIDANHNMQIWTTGEYSFKIFPEKNIRGFKLPDTPQGLLGEARMLNASIVASFVELPLASIVSLHASSCGGRLQTSPAPIQTTPPKDTCSPELLMSLIQTKCADDAMTLVLKKELVAHLKCTITGLTFWDPSCEAEDRGDKFVLRSAYSSCGMQVSASMISNEAVVNILSSSSPQRKKVHCLNMDSLSFQLGLYLSPHFLQASNTIEPGQQSFVQVRVSPSVSEFLLQLDSCHLDLGPEGGTVELIQGRAAKGNCVSLLSPSPEGDPRFSFLLHFYTVPIPKTGTLSCTVALRPKTGSQDQEVHRTVFMRLNIISPDLSGCTSKGLVLPAVLGITFGAFLIGALLTAALWYIYSHTRSPSKREPVVAVAAPASSESSSTNHSIGSTQSTPCSTSSMA
notes: Endoglin (CD105) with the HHT1 disease-causing missense variant V105D, made by site directed mutagenesis; Retained in the ER; also called ENG-V105D; p; V105D; source: HEK293, stably transfected (pcDNA3.0), in lysate
Turning to B3, the “stoichiometry N” value turned out to be 2.
